Measurements from patent US4251628A, “Substrates for angiotensin converting enzyme” (priority 1978, dated 1981).

Substrate: O=C(O)CNC(=O)CNC(=O)CNC(=O)c1ccccc1
Experiment: ACE assay: hydrolysis of ^3H-HipGlyGly by human serum, Lineweaver-Burke Km
Type: biochemical
Settings: other: human serum, pH 8.0, 37° C., 60 min
Procedure: The following sample illustrates the preferred assay method, the sensitivity of the assay and the Km for ^3 H-HipGlyGly. The reaction buffer contains 0.05 M Hepes, 0.1 M sodium chloride and 0.6 M sodium sulphate at pH 8.0. (Pepes is N-2-Hydroxyethyl piperazine N'-2-ethane sulfonic acid.) The substrate, ^3 H-HipGlyGly was dissolved in reaction buffer at a concentration of 16 mM and a specific radioactivity of about 0.15 millicuries/millimole. Serum was prepared from fresh whole blood by standard techniques. […] Hemolyzed samples were not used in the assay. Serum samples could be stored at least for one week at 2° C. to 8° C. or for at least 8 weeks frozen, prior to assaying. For the assay, 50 μl. of serum was diluted with 200 μl. of reaction buffer. […]
A control determination of background radioactivity was made using 50 μl. of reaction buffer instead of diluted serum in the reaction mixture. […] Total radioactivity was determined by counting an amount of substrate equal to that used in the reaction mixture directly in the scintillation counter.
Reaction velocity, in terms of nanomoles of product formed per minute per ml of serum was calculated according to the following formula: [formula] In this formula, "nmoles" means nanomoles, "min" means minutes, "ml" means milliliters and "cpm" means radioactivity counts per minute. […]

B1: angiotensin converting enzyme (ACE) (Homo sapiens) (protein)
chain: LDPGLQPGNFSADEAGAQLFAQSYNSSAEQVLFQSVAASWAHDTNITAENARRQEEAALLSQEFAEAWGQKAKELYEPIWQNFTDPQLRRIIGAVRTLGSANLPLAKRQQYNALLSNMSRIYSTAKVCLPNKTATCWSLDPDLTNILASSRSYAMLLFAWEGWHNAAGIPLKPLYEDFTALSNEAYKQDGFTDTGAYWRSWYNSPTFEDDLEHLYQQLEPLYLNLHAFVRRALHRRYGDRYINLRGPIPAHLLGDMWAQSWENIYDMVVPFPDKPNLDVTSTMLQQGWNATHMFRVAEEFFTSLELSPMPPEFWEGSMLEKPADGREVVCHASAWDFYNRKDFRIKQCTRVTMDQLSTVHHEMGHIQYYLQYKDLPVSLRRGANPGFHEAIGDVLALSVSTPEHLHKIGLLDRVTNDTESDINYLLKMALEKIAFLPFGYLVDQWRWGVFSGRTPPSRYNFDWWYLRTKYQGICPPVTRNETHFDAGAKFHVPNVTPYIRYFVSFVLQFQFHEALCKEAGYEGPLHQCDIYRSTKAGAKLRKVLQAGSSRPWQEVLKDMVGLDALDAQPLLKYFQPVTQWLQEQNQQNGEVLGWPEYQWHPPLPDNYPEGIDLVTDEAEASKFVEEYDRTSQVVWNEYAEANWNYNTNITTETSKILLQKNMQIANHTLKYGTQARKFDVNQLQNTTIKRIIKKVQDLERAALPAQELEEYNKILLDMETTYSVATVCHPNGSCLQLEPDLTNVMATSRKYEDLLWAWEGWRDKAGRAILQFYPKYVELINQAARLNGYVDAGDSWRSMYETPSLEQDLERLFQELQPLYLNLHAYVRRALHRHYGAQHINLEGPIPAHLLGNMWAQTWSNIYDLVVPFPSAPSMDTTEAMLKQGWTPRRMFKEADDFFTSLGLLPVPPEFWNKSMLEKPTDGREVVCHASAWDFYNGKDFRIKQCTTVNLEDLVVAHHEMGHIQYFMQYKDLPVALREGANPGFHEAIGDVLALSVSTPKHLHSLNLLSSEGGSDEHDINFLMKMALDKIAFIPFSYLVDQWRWRVFDGSITKENYNQEWWSLRLKYQGLCPPVPRTQGDFDPGAKFHIPSSVPYIRYFVSFIIQFQFHEALCQAAGHTGPLHKCDIYQSKEAGQRLATAMKLGFSRPWPEAMQLITGQPNMSASAMLSYFKPLLDWLRTENELHGEKLGWPQYNWTPNSAR
notes: Serum was prepared from fresh whole blood by standard techniques; from tissue; host or cells: serum (unfractionated)
Question: With B1 as the protein, how does the Km read?
Answer: 6.25 mM
